Patent publication US20220177594A1

Legend:
[1] = molecular target: Feline_OSMR_hlgG1_Fc (feline); test: indirect ELISA, fOSMR coated; OD ratio to antibody expression control
[2] = molecular target: Feline_OSMR_hlgG1_Fc (feline); test: SPR Biacore
[3] = molecular target: Canine_OSMR_hlgG1_Fc (canine); test: SPR Biacore
Chain of Canine_OSMR_hlgG1_Fc (canine) (chain, as listed by the source limits assumed, form in doubt): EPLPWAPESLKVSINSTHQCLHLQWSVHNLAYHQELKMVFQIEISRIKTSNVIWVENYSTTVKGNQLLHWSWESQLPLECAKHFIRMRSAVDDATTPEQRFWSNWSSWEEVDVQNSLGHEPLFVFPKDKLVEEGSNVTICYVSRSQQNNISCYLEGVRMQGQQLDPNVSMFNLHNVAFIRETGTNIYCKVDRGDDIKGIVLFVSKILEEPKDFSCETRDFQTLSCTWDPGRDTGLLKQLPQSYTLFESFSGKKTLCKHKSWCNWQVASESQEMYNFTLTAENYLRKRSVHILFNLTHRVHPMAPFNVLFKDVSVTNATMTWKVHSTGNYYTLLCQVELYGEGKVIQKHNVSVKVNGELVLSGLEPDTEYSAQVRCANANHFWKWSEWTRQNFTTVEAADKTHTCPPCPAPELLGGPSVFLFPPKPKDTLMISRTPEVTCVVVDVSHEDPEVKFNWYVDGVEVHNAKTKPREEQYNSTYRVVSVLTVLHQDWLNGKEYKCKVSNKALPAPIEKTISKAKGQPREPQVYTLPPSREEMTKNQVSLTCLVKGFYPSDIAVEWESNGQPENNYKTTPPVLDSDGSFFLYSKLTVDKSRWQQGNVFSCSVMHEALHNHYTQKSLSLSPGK

Chain of Feline_OSMR_hlgG1_Fc (feline) (chain, as listed by the source limits assumed, form in doubt): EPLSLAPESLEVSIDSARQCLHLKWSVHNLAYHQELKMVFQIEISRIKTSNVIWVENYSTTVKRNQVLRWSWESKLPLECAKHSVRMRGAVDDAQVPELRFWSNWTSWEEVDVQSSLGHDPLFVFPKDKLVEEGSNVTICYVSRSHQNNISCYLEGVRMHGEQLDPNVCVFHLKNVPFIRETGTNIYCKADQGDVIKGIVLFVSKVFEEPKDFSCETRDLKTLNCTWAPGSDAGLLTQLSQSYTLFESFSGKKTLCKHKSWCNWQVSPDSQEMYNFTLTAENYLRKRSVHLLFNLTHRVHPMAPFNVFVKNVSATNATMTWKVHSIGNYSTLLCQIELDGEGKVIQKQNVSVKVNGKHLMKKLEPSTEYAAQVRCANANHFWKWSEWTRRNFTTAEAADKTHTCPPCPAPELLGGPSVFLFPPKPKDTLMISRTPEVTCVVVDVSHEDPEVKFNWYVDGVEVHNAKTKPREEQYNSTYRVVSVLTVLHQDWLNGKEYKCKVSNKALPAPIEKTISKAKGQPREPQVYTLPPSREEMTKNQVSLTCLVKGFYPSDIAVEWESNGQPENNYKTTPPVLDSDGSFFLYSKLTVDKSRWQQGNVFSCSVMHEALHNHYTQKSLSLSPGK

| Binder | ELISA ratio [1] [OD ratio] | Kd [2] [nM] | koff [2] [s⁻¹] | kon [2] [M⁻¹ s⁻¹] | Kd [3] [nM] | koff [3] [s⁻¹] | kon [3] [M⁻¹ s⁻¹] |
| --- | --- | --- | --- | --- | --- | --- | --- |
| Mu_09E09_VH (SEQ ID NO: 35)_I101A (antibody, V domains shown) VH: DVKLVESGEGLVKPGGSLKLSCAASGFTFSSYAMSWVRQTPEKRLEWVAYISSGGDYIYYADTVKGRFTISRDNARNTLYLQMSSLKSEDTAMYYCTRDPATGTFAYWGQGTLVTVSA VL: DLQMTQTTSSLSASLGDRVTISCRASQDINNYLNWYQQKPDGTVKLLIYYTSTLHSGVPSRFSGSGSGTDYSLTISNLEQEDIATYFCQQGNTLPWTFGGGTKLEIKR | 0 | – | – | – | – | – | – |
| Mu_02D09_VH (SEQ ID NO: 31)_G33A (antibody, V domains shown) VH: EVQLVESGGGLVKPGGSLTLSCAASGFTFSDYAMHWLRQAPEKGLEWVAYISSGSRAVFFADTVKGRFTISRDNAKNTLFLQMTSLRSDDTAMYYCARDRYDGRGFAYWGQGTLVTVSA VL: DIVLTQSPATLSVTPGDSVSLSCRASQSISNNLHWYQQTSHESPRLLITYASQSISGIPSRFSGSGSGTDFTLSINSVETEDFGMYFCQQSNSWPLTFGAGTKLELKR | 0.158 | 6.13 | 0.0014 | 229000 | – | – | – |
| Mu_02D09_VH (SEQ ID NO: 31)_Y50A (antibody, V domains shown) VH: EVQLVESGGGLVKPGGSLTLSCAASGFTFSDYGMHWLRQAPEKGLEWVAAISSGSRAVFFADTVKGRFTISRDNAKNTLFLQMTSLRSDDTAMYYCARDRYDGRGFAYWGQGTLVTVSA VL: DIVLTQSPATLSVTPGDSVSLSCRASQSISNNLHWYQQTSHESPRLLITYASQSISGIPSRFSGSGSGTDFTLSINSVETEDFGMYFCQQSNSWPLTFGAGTKLELKR | 0.009 | 0.00119 | 1.2e-07 | 100000 | – | – | – |
| Mu_02D09_VH (SEQ ID NO: 31)_S52A (antibody, V domains shown) VH: EVQLVESGGGLVKPGGSLTLSCAASGFTFSDYGMHWLRQAPEKGLEWVAYIASGSRAVFFADTVKGRFTISRDNAKNTLFLQMTSLRSDDTAMYYCARDRYDGRGFAYWGQGTLVTVSA VL: DIVLTQSPATLSVTPGDSVSLSCRASQSISNNLHWYQQTSHESPRLLITYASQSISGIPSRFSGSGSGTDFTLSINSVETEDFGMYFCQQSNSWPLTFGAGTKLELKR | 0.001 | 0.736 | 0.000483 | 656000 | – | – | – |
| Mu_02D09_VH (SEQ ID NO: 31)_D99A (antibody, V domains shown) VH: EVQLVESGGGLVKPGGSLTLSCAASGFTFSDYGMHWLRQAPEKGLEWVAYISSGSRAVFFADTVKGRFTISRDNAKNTLFLQMTSLRSDDTAMYYCARARYDGRGFAYWGQGTLVTVSA VL: DIVLTQSPATLSVTPGDSVSLSCRASQSISNNLHWYQQTSHESPRLLITYASQSISGIPSRFSGSGSGTDFTLSINSVETEDFGMYFCQQSNSWPLTFGAGTKLELKR | 0 | 1.13 | 0.000463 | 408000 | – | – | – |
| Mu_02D09_VH (SEQ ID NO: 31)_H35A (antibody, V domains shown) VH: EVQLVESGGGLVKPGGSLTLSCAASGFTFSDYGMAWLRQAPEKGLEWVAYISSGSRAVFFADTVKGRFTISRDNAKNTLFLQMTSLRSDDTAMYYCARDRYDGRGFAYWGQGTLVTVSA VL: DIVLTQSPATLSVTPGDSVSLSCRASQSISNNLHWYQQTSHESPRLLITYASQSISGIPSRFSGSGSGTDFTLSINSVETEDFGMYFCQQSNSWPLTFGAGTKLELKR | 0.03 | 8.05 | 0.00108 | 134000 | – | – | – |
| Mu_02D09_VH (SEQ ID NO: 31)_D62A (antibody, V domains shown) VH: EVQLVESGGGLVKPGGSLTLSCAASGFTFSDYGMHWLRQAPEKGLEWVAYISSGSRAVFFAATVKGRFTISRDNAKNTLFLQMTSLRSDDTAMYYCARDRYDGRGFAYWGQGTLVTVSA VL: DIVLTQSPATLSVTPGDSVSLSCRASQSISNNLHWYQQTSHESPRLLITYASQSISGIPSRFSGSGSGTDFTLSINSVETEDFGMYFCQQSNSWPLTFGAGTKLELKR | 0.01 | 0.00211 | 2.31e-07 | 109000 | – | – | – |
| FEL_10F07_1.2 (antibody) heavy: DVQLVESGGDLVKPGGSLRLTCVASGFTYSSYAMSWVRQAPGKGLQWVAYISSGGDYFYYADTVKGRFTISRDNAKNTLYLQMNSLKTEDTATYYCVRDPITGTFAYWGQGTLVTVSSASTTAPSVFPLAPSCGTTSGATVALACLVLGYFPEPVTVSWNSGALTSGVHTFPAVLQASGLYSLSSMVTVPSSRWLSDTFTCNVAHPPSNTKVDKTVRKTDHPPGPKPCDCPKCPPPEAAGAPSIFIFPPKPKDTLSISRTPEVTCLVVDLGPDDSDVQITWFVDNTQVYTAKTSPREEQFNSTYRVVSVLPILHQDWLKGKEFKCKVNSKSLPSPIERTISKAKGQPHEPQVYVLPPAQEELSRNKVSVTCLIKSFHPPDIAVEWEITGQPEPENNYRTTPPQLDSDGTYFVYSKLSVDRSHWQRGNTYTCSVSHEALHSHHTQKSLTQSPGK light: DITMTQSPGSLAGSPGQQVTMNCRASQDITNYLNWYQQKPGQHPKLLIYYTSTLHSGVPDRFSGSGSGTDFTLTISNLQAEDVASYYCQQGHMLPWTFGQGTRSDAQPSVFLFQPSLDELHTGSASIVCILNDFYPKEVNVKWKVDGVVQNKGIQESTTEQNSKDSTYSLSSTLTMSSTEYQSHEKFSCEVTHKSLASTLVKSFQRSECQRE | – | 4.75 | 0.00061 | 128000 | 13.3 | 0.000885 | 66500 |
| FEL_10F07_2.1 (antibody) heavy: DVQLVESGGDLVKPGGSLRLTCVASGFTFSSYAMSWVRQAPGKGLQWVAYISSGGDYFYYADTVKGRFTISRDDAKNTLYLQMSSLKTEDTATYYCTGDPITGTFAYWGQGTLVTVSSASTTAPSVFPLAPSCGTTSGATVALACLVLGYFPEPVTVSWNSGALTSGVHTFPAVLQASGLYSLSSMVTVPSSRWLSDTFTCNVAHPPSNTKVDKTVRKTDHPPGPKPCDCPKCPPPEAAGAPSIFIFPPKPKDTLSISRTPEVTCLVVDLGPDDSDVQITWFVDNTQVYTAKTSPREEQFNSTYRVVSVLPILHQDWLKGKEFKCKVNSKSLPSPIERTISKAKGQPHEPQVYVLPPAQEELSRNKVSVTCLIKSFHPPDIAVEWEITGQPEPENNYRTTPPQLDSDGTYFVYSKLSVDRSHWQRGNTYTCSVSHEALHSHHTQKSLTQSPGK light: EIQMTQSPSSLSASPGDRVTITCRASQDITNYLNWYQQKPGKVPKLLIYYTSTLHSGVPSRFSGSGSGTDFTLTISSLEPEDAATYYCQQGHMLPWTFGQGTRSDAQPSVFLFQPSLDELHTGSASIVCILNDFYPKEVNVKWKVDGVVQNKGIQESTTEQNSKDSTYSLSSTLTMSSTEYQSHEKFSCEVTHKSLASTLVKSFQRSECQRE | – | 2.2 | 0.00042 | 191000 | 10 | 0.000851 | 85000 |

Now from value to binder:

| ELISA ratio [1] [OD ratio] | Kd [2] [nM] | koff [2] [s⁻¹] | kon [2] [M⁻¹ s⁻¹] | Kd [3] [nM] | koff [3] [s⁻¹] | kon [3] [M⁻¹ s⁻¹] | Binder |
| --- | --- | --- | --- | --- | --- | --- | --- |
| 0.277 | – | – | – | – | – | – | Mu_19F07_VH (SEQ ID NO: 47)_S56A (antibody, V domains shown) VH: EVKLVESEGGLVQPGSSMKLSCTASGFTFSDYYMAWVRQVPEKGLEWVANINYDGASTYYLDSLKSRFIISRDNAKNILYLQMSSLKSEDTATYYCARGLTWDFDVWGTGTTVTVSS VL: DIVMTQSHKFMSPSVGDRVSITCKASQDVDTAVAWYQQKPGQSPKLLIYLASTRHTGVPDRFTGSGSGTDFTLTISNVQSEDLADYFCQQYSRFPLTFGAGTKLELKR |
| 0.479 | – | – | – | – | – | – | Mu_19F07_VH (SEQ ID NO: 47)_Y60A (antibody, V domains shown) VH: EVKLVESEGGLVQPGSSMKLSCTASGFTFSDYYMAWVRQVPEKGLEWVANINYDGSSTYALDSLKSRFIISRDNAKNILYLQMSSLKSEDTATYYCARGLTWDFDVWGTGTTVTVSS VL: DIVMTQSHKFMSPSVGDRVSITCKASQDVDTAVAWYQQKPGQSPKLLIYLASTRHTGVPDRFTGSGSGTDFTLTISNVQSEDLADYFCQQYSRFPLTFGAGTKLELKR |
| 0.057 | – | – | – | – | – | – | Mu_19F07_VH (SEQ ID NO: 47)_W102A (antibody, V domains shown) VH: EVKLVESEGGLVQPGSSMKLSCTASGFTFSDYYMAWVRQVPEKGLEWVANINYDGSSTYYLDSLKSRFIISRDNAKNILYLQMSSLKSEDTATYYCARGLTADFDVWGTGTTVTVSS VL: DIVMTQSHKFMSPSVGDRVSITCKASQDVDTAVAWYQQKPGQSPKLLIYLASTRHTGVPDRFTGSGSGTDFTLTISNVQSEDLADYFCQQYSRFPLTFGAGTKLELKR |
| 0.011 | – | – | – | – | – | – | Mu_09E09_VH (SEQ ID NO: 35)_Y59A (antibody, V domains shown) VH: DVKLVESGEGLVKPGGSLKLSCAASGFTFSSYAMSWVRQTPEKRLEWVAYISSGGDYIAYADTVKGRFTISRDNARNTLYLQMSSLKSEDTAMYYCTRDPITGTFAYWGQGTLVTVSA VL: DLQMTQTTSSLSASLGDRVTISCRASQDINNYLNWYQQKPDGTVKLLIYYTSTLHSGVPSRFSGSGSGTDYSLTISNLEQEDIATYFCQQGNTLPWTFGGGTKLEIKR |
| 0.183 | – | – | – | – | – | – | Mu_09E09_VL (SEQ ID NO: 37)_Q90A (antibody, V domains shown) VH: DVKLVESGEGLVKPGGSLKLSCAASGFTFSSYAMSWVRQTPEKRLEWVAYISSGGDYIYYADTVKGRFTISRDNARNTLYLQMSSLKSEDTAMYYCTRDPITGTFAYWGQGTLVTVSA VL: DLQMTQTTSSLSASLGDRVTISCRASQDINNYLNWYQQKPDGTVKLLIYYTSTLHSGVPSRFSGSGSGTDYSLTISNLEQEDIATYFCQAGNTLPWTFGGGTKLEIKR |
| 0 | – | – | – | – | – | – | Mu_09E09_VL (SEQ ID NO: 37)_Y50A (antibody, V domains shown) VH: DVKLVESGEGLVKPGGSLKLSCAASGFTFSSYAMSWVRQTPEKRLEWVAYISSGGDYIYYADTVKGRFTISRDNARNTLYLQMSSLKSEDTAMYYCTRDPITGTFAYWGQGTLVTVSA VL: DLQMTQTTSSLSASLGDRVTISCRASQDINNYLNWYQQKPDGTVKLLIYATSTLHSGVPSRFSGSGSGTDYSLTISNLEQEDIATYFCQQGNTLPWTFGGGTKLEIKR |
| 0.015 | – | – | – | – | – | – | Mu_09E09_VL (SEQ ID NO: 37)_N92A (antibody, V domains shown) VH: DVKLVESGEGLVKPGGSLKLSCAASGFTFSSYAMSWVRQTPEKRLEWVAYISSGGDYIYYADTVKGRFTISRDNARNTLYLQMSSLKSEDTAMYYCTRDPITGTFAYWGQGTLVTVSA VL: DLQMTQTTSSLSASLGDRVTISCRASQDINNYLNWYQQKPDGTVKLLIYYTSTLHSGVPSRFSGSGSGTDYSLTISNLEQEDIATYFCQQGATLPWTFGGGTKLEIKR |
| 0 | – | – | – | – | – | – | Mu_09E09_VL (SEQ ID NO: 37)_W96A (antibody, V domains shown) VH: DVKLVESGEGLVKPGGSLKLSCAASGFTFSSYAMSWVRQTPEKRLEWVAYISSGGDYIYYADTVKGRFTISRDNARNTLYLQMSSLKSEDTAMYYCTRDPITGTFAYWGQGTLVTVSA VL: DLQMTQTTSSLSASLGDRVTISCRASQDINNYLNWYQQKPDGTVKLLIYYTSTLHSGVPSRFSGSGSGTDYSLTISNLEQEDIATYFCQQGNTLPATFGGGTKLEIKR |
